Assay results published in article PMC10423226, “Identification of a drug binding pocket in TMEM16F calcium-activated ion channel and lipid scramblase” (Nature Communications, 2023).

Molecular target: the molecule itself
Test: cryo-EM structure; TMEM16F in MSP2N2-SoyPC nanodiscs with PIP2 and 4 mM CaCl2, without drug or with 50 uM niclosamide or 100 uM 1PBC; no C2 symmetry imposed

B1: TMEM16F (natural protein, UniProt Q6P9J9 1-911, looked up)
chain: MQMMTRKVLLNMELEEDDDEDGDIVLENFDQTIVCPTFGSLENQQDFRTPEFEEFNGKPDSLFFTDGQRRIDFILVYEDESKKENNKKGTNEKQKRKRQAYESNLICHGLQLEATRSVSDDKLVFVKVHAPWEVLCTYAEIMHIKLPLKPNDLKTRSPFGNLNWFTKVLRVNESVIKPEQEFFTAPFEKSRMNDFYILDRDSFFNPATRSRIVYFILSRVKYQVMNNVNKFGINRLVSSGIYKAAFPLHDCRFNYESEDISCPSERYLLYREWAHPRSIYKKQPLDLIRKYYGEKIGIYFAWLGYYTQMLLLAAVVGVACFLYGYLDQDNCTWSKEVCDPDIGGQILMCPQCDRLCPFWRLNITCESSKKLCIFDSFGTLIFAVFMGVWVTLFLEFWKRRQAELEYEWDTVELQQEEQARPEYEAQCNHVVINEITQEEERIPFTTCGKCIRVTLCASAVFFWILLIIASVIGIIVYRLSVFIVFSTTLPKNPNGTDPIQKYLTPQMATSITASIISFIIIMILNTIYEKVAIMITNFELPRTQTDYENSLTMKMFLFQFVNYYSSCFYIAFFKGKFVGYPGDPVYLLGKYRSEECDPGGCLLELTTQLTIIMGGKAIWNNIQEVLLPWVMNLIGRYKRVSGSEKITPRWEQDYHLQPMGKLGLFYEYLEMIIQFGFVTLFVASFPLAPLLALVNNILEIRVDAWKLTTQFRRMVPEKAQDIGAWQPIMQGIAILAVVTNAMIIAFTSDMIPRLVYYWSFSIPPYGDHTYYTMDGYINNTLSVFNITDFKNTDKENPYIGLGNYTLCRYRDFRNPPGHPQEYKHNIYYWHVIAAKLAFIIVMEHIIYSVKFFISYAIPDVSKITKSKIKREKYLTQKLLHESHLKDLTKNMGIIAERIGGTVDNSVRPKLE
modifications: glycans on the extracellular loops
notes: Sample in lipid nanodiscs (MSP2N2, SoyPC) with PIP2 and 4 mM CaCl2; also called mTMEM16F; TMEM16F dimer; source: HEK293s cells, extracted and purified in DDM/CHS, reconstituted in MSP2N2-SoyPC nanodiscs, FPLC
Question: With B1 as the protein, how does the “stoichiometry N” value read?
Answer: 2
